According to PMC5477842:

Biological target: Truncated rat Eag1 (rEag1Δ; Kv10.1 with residues 773-886 removed) (rat) (UniProt Q63472)
Assay: cryo-EM structure

With “calmodulin (from UniProt P0DP23 1-149) (natural protein)” the stoichiometry N (CaM molecules per rEag1 tetramer) was 4.
